Measurements reported in the supplement of paper PMC12855868.

B1: library; numbered along this chain (parent)
chain: MAAAGGARLLRAASAVLGGPAGRWLHHAGSRAGSSGLLRNRGPGGSAEASRSLSVSARARSSSEDKITVHFINRDGETLTTKGKVGDSLLDVVVENNLDIDGFGACEGTLACSTCHLIFEDHIYEKLDAITDEENDMLDLAYGLTDRSRLGCQICLTKSMDNMTVRVPETVADARQSIDVGKTS

Variants of: B1
Assay: scaled log2 fold change in cell abundance, elesclomol vs control (0 = silent mean, 1 = nonsense mean) (scaled log2 ratio); higher = higher viability under elesclomol (loss of FDX1 cuproptosis function)
Settings: glucose 10 mM
[1] = with ABC1 FDX1 KO, elesclomol 5 nM, 14 days
[2] = with HEK293T FDX1 KO, elesclomol 40 nM, 11 days
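Further: variant abundance is its share of total variant reads in each endpoint sample, from next-generation sequencing of the integrated ORF PCR-amplified out of genomic DNA.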

Row | Variant | scaled log2 fold change [1] | scaled log2 fold change [2]
1 | T157K | 0.0573 | -0.19
2 | T157G | -0.366 | 0.895
3 | T157I | -0.909 | -0.784
4 | T157D | 0.102 | -0.275
5 | T157F | 0.0938 | 0.986
6 | T157Y | 0.175 | -0.241
7 | T157H | -0.268 | -0.000268
8 | T157P | 0.927 | 0.296
9 | T157V | -0.108 | -0.969
10 | T157E | 0.0855 | -0.0584
11 | T157L | -0.0209 | -0.588
12 | T157A | 0.304 | 0.871
13 | T157M | 0.046 | 0.00875
14 | T157S | 0.365 | 0.742
15 | T157Q | 0.0955 | 1.04
16 | T157N | -0.181 | 
17 | T157C | 0.0208 | 0.206
18 | T157R | 0.294 | 0.0556
19 | D161Q | 0.0687 | 
20 | D161F | 0.305 | 0.236
21 | D161T | 0.262 | -0.0378
22 | D161Y | 0.284 | 0.145
23 | D161G | -0.198 | 
24 | D161A | -0.111 | 

Row | Variant | scaled log2 fold change [1] | scaled log2 fold change [2]
25 | D161M | -0.0698 | -0.0785
26 | D161K | 0.234 | 0.181
27 | D161H | -0.161 | -0.464
28 | D161V | -0.562 | 0.103
29 | D161P | 0.586 | 0.0492
30 | D161E | -0.0246 | 0.705
31 | D161C | 0.35 | 0.607
32 | D161W | 0.197 | -0.0327
33 | D161I | 0.0246 | -0.332
34 | D161R | 0.243 | 0.406
35 | D161L | 0.312 | 0.16
36 | D161N | 0.064 | -0.539
37 | D161S | 0.299 | -0.0997
38 | R166F | -0.233 | 0.799
39 | R166P | 1.06 | 1.77
40 | R166H | -0.236 | 
41 | R166G | 0.266 | -0.344
42 | R166C | -0.501 | -0.211
43 | R166L | -0.509 | 0.328
44 | R166A | 0.373 | 0.284
45 | R166N | -0.198 | 0.918
46 | R166M | 0.144 | -0.000209
47 | R166I | -0.0924 | -0.203
48 | R166E | -0.677 | -0.967

Row | Variant | scaled log2 fold change [1] | scaled log2 fold change [2]
49 | R166Q | -0.338 | -0.083
50 | R166D | 0.375 | -0.407
51 | R166K | -0.502 | -0.393
52 | M160F | 0.0868 | 0.149
53 | M160Y | 0.274 | 0.713
54 | M160E | 0.143 | -0.299
55 | M160Q | 0.0622 | 0.682
56 | M160K | -0.0408 | 1.28
57 | M160I | 0.353 | 0.63
58 | M160S | 0.278 | 0.0347
59 | M160G | 0.381 | 0.247
60 | M160V | -0.27 | 
61 | M160N | 0.245 | -0.0466
62 | M160C | -0.675 | -0.515
63 | M160D | -0.132 | 0.103
64 | M160A | 0.233 | -0.241
65 | M160P | 1.06 | 1.11
66 | M160R | 0.249 | 0.049
67 | M160W | 0.366 | -0.0391
68 | M160L | -0.304 | 
69 | M160T | 0.347 | 0.674
70 | M160H | -0.251 | 0.0298
71 | C155L | 0.0756 | -0.359
72 | C155F | -0.0473 | -0.0932

Row | Variant | scaled log2 fold change [1] | scaled log2 fold change [2]
73 | C155N | -0.0685 | 
74 | C155A | -0.331 | -0.584
75 | C155G | -0.0608 | -0.601
76 | C155M | 0.338 | 0.969
77 | C155H | -1.03 | -0.48
78 | C155K | -0.165 | 6.73e-05
79 | C155W | -0.0475 | 0.246
80 | C155T | -0.251 | -0.435
81 | C155D | 0.24 | -1.76
82 | C155V | -0.17 | -0.185
83 | C155Q | 0.507 | 
84 | C155P | 0.0631 | 0.21
85 | C155I | 0.0211 | -0.117
86 | C155Y | -0.378 | -0.939
87 | C155R | -0.248 | -1.26
88 | C155E | -0.828 | -0.236
89 | C155S | 0.114 | -0.635
90 | I154Q | 0.399 | 0.268
91 | I154K | 0.995 | 0.727
92 | I154H | 0.392 | 0.163
93 | I154V | -0.0239 | -1.6
94 | I154W | 0.968 | 0.877
95 | I154S | 0.481 | 0.0924
96 | I154M | 0.363 | 0.583

Row | Variant | scaled log2 fold change [1] | scaled log2 fold change [2]
97 | I154P | 1.04 | 0.814
98 | I154G | 1.1 | 1.27
99 | I154Y | 0.82 | 0.121
100 | I154N | 0.748 | 0.148
101 | I154T | -0.043 | -0.257
102 | I154R | 1.01 | 0.787
103 | I154L | 0.117 | 0.0996
104 | V165C | 0.0302 | 0.944
105 | V165K | 1.08 | 1.01
106 | V165P | 0.71 | 0.4
107 | V165W | 0.852 | 0.405
108 | V165L | -0.0209 | -0.834
109 | V165I | -0.183 | -0.249
110 | V165A | -0.0573 | -0.318
111 | V165N | 0.812 | 1.02
112 | V165R | 1.09 | 1.45
113 | V165H | 1.12 | 0.873
114 | V165F | 0.53 | 0.286
115 | V165T | 0.13 | -0.566
116 | V165Y | 1.03 | 1.38
117 | V165D | 1.12 | 0.895
118 | V165Q | 1.06 | 1.21
119 | V165S | 0.00333 | 0.568
